Assay results from US20190276549A1.
Like-named read-outs stand apart in the source and are kept apart here. Values belong to the substance of their own block, whether it stands above or below them.

Key:
C1q (human) [1] = target: C1q (human) (UniProt P02745); assay: cell-based or functional assay
C1q (human) [2] = target: C1q (human) (UniProt P02745); assay: cell-based or functional assay; remark: listed apart in the source
CD52 (human) [3] = target: CD52 (human) (UniProt P31358); assay: QIFIKIT indirect immunofluorescence, flow cytometry, 10 µg/mL antibody, Ramos cells
CD52 (human) [4] = target: CD52 (human) (UniProt P31358); assay: QIFIKIT indirect immunofluorescence, flow cytometry, 10 µg/mL antibody, U-266B1 cells
CD52 (human) [5] = target: CD52 (human) (UniProt P31358); assay: QIFIKIT indirect immunofluorescence, flow cytometry, 10 µg/mL antibody, U-698-M cells
CD52 (human) [6] = target: CD52 (human) (UniProt P31358); assay: QIFIKIT indirect immunofluorescence, flow cytometry, 10 µg/mL antibody, REH cells
CD52 (human) [7] = target: CD52 (human) (UniProt P31358); assay: QIFIKIT indirect immunofluorescence, flow cytometry, 10 µg/mL antibody, Daudi cells
CD52 (human) [8] = target: CD52 (human) (UniProt P31358); assay: QIFIKIT indirect immunofluorescence, flow cytometry, 10 µg/mL antibody, Wien 133 cells
CD52 (human) [9] = target: CD52 (human) (UniProt P31358); assay: QIFIKIT indirect immunofluorescence, flow cytometry, 10 µg/mL antibody, Raji cells

Sequence of UniProt P02745 (P02745 23-245 limits assumed, chain 1 of 3): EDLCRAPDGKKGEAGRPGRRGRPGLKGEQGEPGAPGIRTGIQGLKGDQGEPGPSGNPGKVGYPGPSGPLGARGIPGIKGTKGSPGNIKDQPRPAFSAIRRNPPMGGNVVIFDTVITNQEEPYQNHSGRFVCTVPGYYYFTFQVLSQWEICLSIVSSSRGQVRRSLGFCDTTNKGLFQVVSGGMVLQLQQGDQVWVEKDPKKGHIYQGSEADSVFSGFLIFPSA
Sequence of UniProt P02745 (P02746 28-253 limits assumed, chain 2 of 3, further chain): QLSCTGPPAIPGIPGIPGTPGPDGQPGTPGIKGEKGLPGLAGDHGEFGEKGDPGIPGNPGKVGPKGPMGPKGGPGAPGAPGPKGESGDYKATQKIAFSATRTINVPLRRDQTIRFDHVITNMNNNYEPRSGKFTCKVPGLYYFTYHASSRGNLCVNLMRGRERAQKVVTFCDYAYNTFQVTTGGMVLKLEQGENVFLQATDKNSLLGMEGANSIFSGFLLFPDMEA
Sequence of UniProt P02745 (P02747 29-245 limits assumed, chain 3 of 3, further chain): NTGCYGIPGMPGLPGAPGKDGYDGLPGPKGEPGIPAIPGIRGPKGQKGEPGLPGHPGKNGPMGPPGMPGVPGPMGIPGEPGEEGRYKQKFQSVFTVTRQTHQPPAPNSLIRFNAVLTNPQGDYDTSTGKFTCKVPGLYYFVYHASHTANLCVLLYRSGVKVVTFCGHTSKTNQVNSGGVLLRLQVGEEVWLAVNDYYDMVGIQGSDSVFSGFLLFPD

Substance: IgG1-Campath variant E345R with the K322E mutation (antibody)
- CDC on Wien 133 cells, 20% NHS: area under the dose response curve, IgG1-Campath = 100% (C1q (human) [1]): 60%

Substance: IgG1-005-AA-E430G (antibody)
- CDC on Daudi cells, 20% NHS: EC50 (C1q (human) [2]): 0.06 µg/mL

Substance: IgG1-Campath-E345K (antibody)
- CDC on Wien 133 cells, 20% NHS: area under the dose response curve relative to IgG1-Campath (C1q (human) [1]): 2.4 fold
- CDC on Wien 133 cells, 20% NHS: area under the dose response curve, IgG1-Campath = 100% (C1q (human) [1]): 240%

Substance: IgG1-005-AA-E345R (antibody)
- CDC on Daudi cells, 20% NHS: EC50 (C1q (human) [2]): 0.14 µg/mL
- CDC on Daudi cells, 20% NHS: maximal kill (C1q (human) [2]): 74.3%

Substance: IgG1-Campath (antibody)
- antibody binding capacity (Molecules/cell) (molecules/cell) (CD52 (human) [3]): 179000
- antibody binding capacity (Molecules/cell) (molecules/cell) (CD52 (human) [4]): 1.46e+06
- antibody binding capacity (Molecules/cell) (molecules/cell) (CD52 (human) [5]): 93700
- antibody binding capacity (Molecules/cell) (molecules/cell) (CD52 (human) [6]): 135000
- antibody binding capacity (Molecules/cell) (molecules/cell) (CD52 (human) [7]): 7280
- antibody binding capacity (Molecules/cell) (molecules/cell) (CD52 (human) [8]): 332000
- antibody binding capacity (Molecules/cell) (molecules/cell) (CD52 (human) [9]): 85500

Now from value to substance:

- CDC on Daudi cells, 20% NHS: EC50 (C1q (human) [1]): 0.15 µg/mL
Substance: IgG1-005-D270R/E430G (antibody)

- CDC on Daudi cells, 20% NHS: EC50 (C1q (human) [2]): 0.01 µg/mL
Substance: IgG1-005-E345R (antibody)

- CDC on Daudi cells, 20% NHS: EC50 (C1q (human) [1]): 0.005 µg/mL
- CDC on Daudi cells, 20% NHS: EC50 (C1q (human) [2]): 0.01 µg/mL
Substance: IgG1-005-E430G (antibody)
